B1: Regulator of RpoS (Escherichia coli (strain K12)), P0AEV1 (parent)
chain: MTQPLVGKQILIVEDEQVFRSLLDSWFSSLGATTVLAADGVDALELLGGFTPDLMICDIAMPRMNGLKLLEHIRNRGDQTPVLVISATENMADIAKALRLGVEDVLLKPVKDLNRLREMVFACLYPSMFNSRVEEEERLFRDWDAMVDNPAAAAKLLQELQPPVQQVISHCRVNYRQLVAADKPGLVLDIAALSENDLAFYCLDVTRAGHNGVLAALLLRALFNGLLQEQLAHQNQRLPELGALLKQVNHLLRQANLPGQFPLLVGYYHRELKNLILVSAGLNATLNTGEHQVQISNGVPLGTLGNAYLNQLSQRCDAWQCQIWGTGGRLRLMLSAE
partner: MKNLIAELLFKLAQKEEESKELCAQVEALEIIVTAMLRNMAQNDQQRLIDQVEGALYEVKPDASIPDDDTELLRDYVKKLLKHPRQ

Variants of: B1
Settings: with irap_ecoli iraP

| Variant | effect of a mutation on the interaction |
| --- | --- |
| D58P | disrupting interaction strength |
| D58A | decreasing interaction strength |

Source: IntAct's records for PubMed 25988182
